The experiment addresses T1, GST-tagged KLHL18 (human, UniProt O94889 1-574).
T1 sequence (looked up): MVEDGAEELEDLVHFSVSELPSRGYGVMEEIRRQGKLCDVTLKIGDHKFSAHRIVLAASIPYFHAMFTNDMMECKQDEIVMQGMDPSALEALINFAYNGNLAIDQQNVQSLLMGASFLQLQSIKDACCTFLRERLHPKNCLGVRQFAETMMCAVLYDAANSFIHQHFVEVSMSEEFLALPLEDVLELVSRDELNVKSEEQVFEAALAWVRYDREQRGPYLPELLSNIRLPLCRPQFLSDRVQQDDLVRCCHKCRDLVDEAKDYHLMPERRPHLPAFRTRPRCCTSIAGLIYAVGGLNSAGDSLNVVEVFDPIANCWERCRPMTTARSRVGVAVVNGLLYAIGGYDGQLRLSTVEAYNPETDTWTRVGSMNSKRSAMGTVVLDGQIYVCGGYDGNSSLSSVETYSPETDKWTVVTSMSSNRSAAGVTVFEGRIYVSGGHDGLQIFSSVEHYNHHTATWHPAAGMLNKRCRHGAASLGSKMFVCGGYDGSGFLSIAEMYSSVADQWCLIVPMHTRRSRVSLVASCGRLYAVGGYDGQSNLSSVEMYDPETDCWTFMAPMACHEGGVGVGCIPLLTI
The experiment can be described thus: pull-down.

B1: histidine-tagged Aurora-A (natural protein, human, UniProt O14965 1-403, looked up)
chain: MDRSKENCISGPVKATAPVGGPKRVLVTQQFPCQNPLPVNSGQAQRVLCPSNSSQRIPLQAQKLVSSHKPVQNQKQKQLQATSVPHPVSRPLNNTQKSKQPLPSAPENNPEEELASKQKNEESKKRQWALEDFEIGRPLGKGKFGNVYLAREKQSKFILALKVLFKAQLEKAGVEHQLRREVEIQSHLRHPNILRLYGYFHDATRVYLILEYAPLGTVYRELQKLSKFDEQRTATYITELANALSYCHSKRVIHRDIKPENLLLGSAGELKIADFGWSVHAPSSRRTTLCGTLDYLPPEMIEGRMHDEKVDLWSLGVLCYEFLVGKPPFEANTYQETYKRISRVEFTFPDFVTEGARDLISRLLKHNPSQRPMLREVLEHPWITANSSKPSNCQNKESASKQS
For the molecule B1, the binding result was “binds”.

The record behind these values is paper PMC3507203 (Biology Open, 2011).
